Experiments:
Assay in all cases: cell-based or functional assay
[1] = target: human glucagon receptor (human) (UniProt P47871)
[2] = target: hGLP-1R (Homo sapiens, UniProt P43220)
[3] = target: T1, human GIP receptor (human) (UniProt P48546)
T1 sequence (looked up): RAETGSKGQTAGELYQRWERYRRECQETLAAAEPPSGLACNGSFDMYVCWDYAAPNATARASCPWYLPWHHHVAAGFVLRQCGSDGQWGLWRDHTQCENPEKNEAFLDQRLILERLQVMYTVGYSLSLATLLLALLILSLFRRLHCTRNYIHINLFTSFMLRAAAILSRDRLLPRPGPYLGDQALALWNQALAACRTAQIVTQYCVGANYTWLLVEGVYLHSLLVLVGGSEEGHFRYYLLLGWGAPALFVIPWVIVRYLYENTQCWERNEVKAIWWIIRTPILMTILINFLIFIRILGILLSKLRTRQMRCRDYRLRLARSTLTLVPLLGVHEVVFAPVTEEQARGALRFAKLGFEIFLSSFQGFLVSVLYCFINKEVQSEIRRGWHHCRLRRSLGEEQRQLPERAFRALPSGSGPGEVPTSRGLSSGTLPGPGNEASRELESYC

Chain of hGLP-1R (P43220 24-463): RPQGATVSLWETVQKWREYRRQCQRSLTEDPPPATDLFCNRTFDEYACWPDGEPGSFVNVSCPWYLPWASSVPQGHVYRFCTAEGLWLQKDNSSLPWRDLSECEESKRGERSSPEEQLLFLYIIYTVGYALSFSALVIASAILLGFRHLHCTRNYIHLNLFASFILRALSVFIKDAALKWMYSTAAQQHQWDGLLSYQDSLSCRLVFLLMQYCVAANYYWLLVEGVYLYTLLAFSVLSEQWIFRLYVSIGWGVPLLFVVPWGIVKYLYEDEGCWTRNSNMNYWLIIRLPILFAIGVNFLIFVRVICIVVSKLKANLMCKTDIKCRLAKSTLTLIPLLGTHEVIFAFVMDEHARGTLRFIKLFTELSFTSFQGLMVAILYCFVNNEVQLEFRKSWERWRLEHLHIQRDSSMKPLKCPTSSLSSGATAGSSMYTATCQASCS
Chain of human glucagon receptor (human) (P47871 26-477): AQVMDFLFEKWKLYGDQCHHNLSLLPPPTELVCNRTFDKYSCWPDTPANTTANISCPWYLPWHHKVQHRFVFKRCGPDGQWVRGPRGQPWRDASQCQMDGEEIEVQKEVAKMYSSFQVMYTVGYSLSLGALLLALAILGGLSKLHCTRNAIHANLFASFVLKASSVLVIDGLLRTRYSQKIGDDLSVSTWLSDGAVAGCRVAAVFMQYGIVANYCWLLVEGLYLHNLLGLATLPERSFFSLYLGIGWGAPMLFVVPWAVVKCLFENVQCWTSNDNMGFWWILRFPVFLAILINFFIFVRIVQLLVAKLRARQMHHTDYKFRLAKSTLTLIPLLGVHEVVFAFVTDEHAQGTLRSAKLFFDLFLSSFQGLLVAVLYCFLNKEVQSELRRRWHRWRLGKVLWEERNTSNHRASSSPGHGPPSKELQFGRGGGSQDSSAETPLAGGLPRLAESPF

Row | Binder | Relative cAMP EC50 [1] [nM] | cAMP Rel EC50, nM (in the presence of 1% HSA) [1] [nM] | Relative cAMP EC50 [2] [nM] | cAMP Rel EC50, nM (in the presence of 1% HSA) [2] [nM] | Relative cAMP EC50 [3] [nM] | cAMP Rel EC50, nM (in the presence of 1% HSA) [3] [nM] | cAMP Rel EC50 (1% HSA) [1] [nM] | cAMP Rel EC50 (1% HSA) [2] [nM] | cAMP Rel EC50 (1% HSA) [3] [nM] | cAMP Rel EC50 [1] [nM] | cAMP Rel EC50 [2] [nM] | cAMP Rel EC50 [3] [nM]
1 | YXQGTFTSDFSXXLDKKAQXAFIEYLLAGGPSSGAPPPSGS (synthetic construct; SITE 2: note = 2-Aminoisobutyric Acid; SITE 12: note = L-ornithine; SITE 13: note = alpha-methyl-leucine; SITE 17: note = Lysine is chemically modified through conjugation of the epsilon-amino group of the Lysine side chain with (2-[2-(2-Amino-ethoxy)-ethoxy]-acetyl)-(gamma-Glu)) [Example 76] | 11.1 | 2240 | 2.25 | 436 | 0.196 | 45.5 | – | – | – | – | – | –
2 | YXQGTFTSDXSQXLDKKAQXAFIEYLLEAGPSSGAPPPSGT (synthetic construct; SITE 2: note = 2-Aminoisobutyric Acid; SITE 10: note = 3-(4-Pyridyl)-L-alanine; SITE 13: note = alpha-methyl-leucine; SITE 17: note = Lysine is chemically modified through conjugation of the epsilon-amino group of the Lysine side chain with (2-[2-(2-Amino-ethoxy)-ethoxy]-acetyl)) [Example 823] | 7.75 | – | 2.96 | – | 0.171 | – | 1410 | 421 | 25.6 | – | – | –
3 | YXQGTFTSDFSXXLDKKAQXAFIEYLIEXGPSSGAPPPSGS (synthetic construct; SITE 2: note = 2-Aminoisobutyric Acid; SITE 12: note = (S)-2,4-diaminobutanoic acid; SITE 13: note = alpha-methyl-leucine; SITE 17: note = Lysine is chemically modified through conjugation of the epsilon-amino group of the Lysine side chain with (2-[2-(2-Amino-ethoxy)-ethoxy]-ac)) [Example 799] | 1.64 | – | 0.462 | – | 0.0668 | – | 574 | 179 | 18.4 | – | – | –
4 | YXQGTFTSDXSQXLDKKAQXAFIEYLIAGGPSSGAPPPSGE (synthetic construct; SITE 2: note = 2-Aminoisobutyric Acid; SITE 10: note = 3-(4-Pyridyl)-L-alanine; SITE 13: note = alpha-methyl-leucine; SITE 17: note = Lysine is chemically modified through conjugation of the epsilon-amino group of the Lysine side chain with (gamma-Glu)2-CO-(CH2)16-CO2H; SITE 20:) [Example 883 (SEQ ID NO: 889)] | – | – | – | – | – | – | – | – | – | 578 | 120 | 9.41
5 | YXQGTFTSDFSKXLDKKAQXAFIEYLIEXGPSSGAPPPSGS (synthetic construct; SITE 2: note = 2-Aminoisobutyric Acid; SITE 13: note = alpha-methyl-leucine; SITE 17: note = Lysine is chemically modified through conjugation of the epsilon-amino group of the Lysine side chain with (2-[2-(2-Amino-ethoxy)-ethoxy]-acetyl)-(gamma-Glu)-CO-(CH2) 16-CO2H; SITE 20: n) [Example 797] | 3.78 | – | 0.449 | – | 0.0781 | – | 963 | 102 | 16.7 | – | – | –
6 | YXQGTFTSDFSQXLDKKAQXAFIEYLIAGGPSSGAPPPSGS (synthetic construct; SITE 2: note = 2-Aminoisobutyric Acid; SITE 13: note = alpha-methyl-leucine; SITE 17: note = Lysine is chemically modified through conjugation of the epsilon-amino group of the Lysine side chain with (2-[2-(2-Amino-ethoxy)-ethoxy]-acetyl)-(gamma-Glu)-CO-(CH2) 16-CO2H; SITE 20: n) [Example 875 (SEQ ID NO: 881)] | – | – | – | – | – | – | – | – | – | 689 | 78.6 | 13.8
7 | YXQGTFTSDXSKXLDKKAQXAFIEYLIEXGPSSGAPPPSGS (synthetic construct; SITE 2: note = 2-Aminoisobutyric Acid; SITE 10: note = 3-(4-Pyridyl)-L-alanine; SITE 13: note = alpha-methyl-leucine; SITE 17: note = Lysine is chemically modified through conjugation of the epsilon-amino group of the Lysine side chain with (2-[2-(2-Amino-ethoxy)-ethoxy]-acetyl)) [Example 801] | 5.51 | – | 0.938 | – | 0.147 | – | 1200 | 133 | 18.1 | – | – | –
8 | YXQGTFTSDXSQXLDKKAQXAFIEYLLEAGPSSXAPPPSGT (possibly C-terminal amide; synthetic construct; SITE 2: note = 2-Aminoisobutyric Acid; SITE 10: note = 3-(4-Pyridyl)-L-alanine; SITE 13: note = alpha-methyl-leucine; SITE 17: note = Lysine is chemically modified through conjugation of the epsilon-amino group of the Lysine side chain with (2-[2-(2-Amino-ethoxy)-ethoxy]-acetyl)) [Example 824] | 7.92 | – | 2.43 | – | 0.123 | – | 1110 | 343 | 28.9 | – | – | –
9 | YXQGTFTSDXSQXLDKKAQXAFIEYLLEAGPSSXAPPPSGT (synthetic construct; SITE 2: note = 2-Aminoisobutyric Acid; SITE 10: note = 3-(4-Pyridyl)-L-alanine; SITE 13: note = alpha-methyl-leucine; SITE 17: note = Lysine is chemically modified through conjugation of the epsilon-amino group of the Lysine side chain with (2-[2-(2-Amino-ethoxy)-ethoxy]-acetyl)) [Example 825] | 5.53 | – | 3.4 | – | 0.12 | – | 1810 | 303 | 39.3 | – | – | –
10 | YXQGTFTSDXSQXLDKKAQXAFIEYLIEXGPSSGAPPPSGSGE (not fully specified; C-terminus uncertain, likely amide; synthetic construct; SITE 2: note = 2-Aminoisobutyric Acid; SITE 10: note = 3-(4-Pyridyl)-L-alanine; SITE 13: note = alpha-methyl-leucine; SITE 17: note = Lysine is chemically modified through conjugation of the epsilon-amino group of the Lysine side chain with (gamma-Glu)2-CO-(CH2)16-CO2H; SITE 20:) [Example 891 (SEQ ID NO: 897)] | – | – | – | – | – | – | – | – | – | 581 | 330 | 16
11 | YXQGTFTSDXSKXLDKKAQXAFIEYLIEXGPSSGAPPPSGSEE (non-natural residues, C-terminal amide, acylated Lys with fatty diacid; synthetic construct; SITE 2: note = 2-Aminoisobutyric Acid; SITE 10: note = 3-(4-Pyridyl)-L-alanine; SITE 13: note = alpha-methyl-leucine; SITE 17: note = Lysine is chemically modified through conjugation of the epsilon-amino group of the Lysine side chain with (2-[2-(2-Amino-ethoxy)-ethoxy]-acetyl)) [Example 902] | 15.9 | – | 2.58 | – | 0.19 | – | 1360 | 232 | 28.5 | – | – | –
12 | YXQGTFTSDXSKXLDKKAQXAFIEYLIEXGPSSGAPPPSGSEE (non-natural residues; C18 diacid-(γGlu)2 on Lys; C-terminal amide; synthetic construct; SITE 2: note = 2-Aminoisobutyric Acid; SITE 10: note = 3-(4-Pyridyl)-L-alanine; SITE 13: note = alpha-methyl-leucine; SITE 17: note = Lysine is chemically modified through conjugation of the epsilon-amino group of the Lysine side chain with (gamma-Glu)2-CO-(CH2)16-CO2H; SITE 20:) [Example 905] | 12.3 | – | 2.52 | – | 0.217 | – | 1390 | 215 | 10.4 | – | – | –
13 | YXQGTFTSDXSQXLDKKAQXAFIEYLIEXGPSSGAPPPSGSGE (not fully specified; synthetic construct; SITE 2: note = 2-Aminoisobutyric Acid; SITE 10: note = 3-(4-Pyridyl)-L-alanine; SITE 13: note = alpha-methyl-leucine; SITE 17: note = Lysine is chemically modified through conjugation of the epsilon-amino group of the Lysine side chain with (gamma-Glu)2-CO-(CH2)16-CO2H; SITE 20:) [Example 893 (SEQ ID NO: 899)] | – | – | – | – | – | – | – | – | – | 508 | 305 | 21.4
14 | YXQGTFTSDXSKXLDKKAQXAFIEYLIEXGPSSGAPPPSGSEEE (Aib, 4Pal, αMeL, AEEA-γGlu-C18 diacid on Lys, amide; synthetic construct; SITE 2: note = 2-Aminoisobutyric Acid; SITE 10: note = 3-(4-Pyridyl)-L-alanine; SITE 13: note = alpha-methyl-leucine; SITE 17: note = Lysine is chemically modified through conjugation of the epsilon-amino group of the Lysine side chain with (2-[2-(2-Amino-ethoxy)-ethoxy]-acetyl)) [Example 903] | 12.9 | – | 2.7 | – | 0.277 | – | 1630 | 387 | 31.2 | – | – | –
15 | YXQGTFTSDXSKXLDKKAQXAFIEYLIEXGPSSGAPPPSGSEEE (non-natural residues; (γGlu)2-C18 diacid on Lys; C-terminal amide; synthetic construct; SITE 2: note = 2-Aminoisobutyric Acid; SITE 10: note = 3-(4-Pyridyl)-L-alanine; SITE 13: note = alpha-methyl-leucine; SITE 17: note = Lysine is chemically modified through conjugation of the epsilon-amino group of the Lysine side chain with (gamma-Glu)2-CO-(CH2)16-CO2H; SITE 20:) [Example 906] | 14.7 | – | 2.48 | – | 0.212 | – | 1170 | 236 | 15.4 | – | – | –
